What is called stoichiometry N is the number of molecules, sites or subunits per partner or assembly.

To fix the notation:
B1: TM1769, small subunit of Thermotoga maritima Exonuclease VII (XseB homolog) (natural protein, UniProt Q9X290 1-75, looked up)
chain: MNFEEMMKELEEIVNRLENEDLPLEESIKLFERGVELYRKCKEILQQNRLKIIDVMKELEGEIDASGRDQENELR
B2: TM1768, large subunit of Thermotoga maritima Exonuclease VII (XseA homolog) (enzyme, UniProt Q9X289 1-394, looked up)
chain: MKDYTYSVTEINEYIKDLIEGDPYLTNVSVYGEISGVRPRKGHIFFSLVEENARLECVIFGGDNMGIRLQEGRMALVEGSVSVYIPHGTYRFICSNVRYLDQAGMYQIKFETTLKKLLEEGLLSRPKKTVPRFPRKIGIITSRDSAALQDVIRTARERKAPIEIYVFHTSVQGDSAREELIKALRKANEYDLDLVMIVRGGGSKEDLWVFNEEDVIREILRLRHPVVTGIGHEIDRVIADFVADVSMHTPTGAAEYVIPDASEIHEDLDSFFEKLITSLSNRFDMEERRLETLYFRLRMIGRRKLELNEFKIERVKELAAKLRKKLMDYFEHNQKKLDSLGRMLESLNPLRPLERGFVLVKKDEKIVKESTDLKRGDVVSLVFKDGTKKAQVIG

Series [1] concerns the molecule itself. Briefly: SEC. In general terms: In gel filtration, larger molecules generally elute earlier.
For series [2], the target named is B1. Kind of series: SEC.

As to B1, the “stoichiometry N” value in series [1] was determined as 4.
On to B2, for which the “stoichiometry N” value in series [2] was roughly 4 TM1769 per TM1768.

(Values after PMC2566859 (Nucleic Acids Research, 2008).)
